Results on three substances are retold here after patent publication US20210292423A1.

In test [1] the target is human CD123 (IL3RA) on cells (human) (UniProt P26951). Kind of test: cell-based or functional assay.
Test [2] has as its target Macaca fascicularis CD3ε/δ-Fc fusion protein (Macaca fascicularis) (UniProt Q95LI8). The test can be described thus: SPR Biacore, ratio against human CD3εδ. In general terms: Surface plasmon resonance follows binding to a sensor surface in real time, without labels.
For test [3], the target named is Macaca fascicularis CD3 (TCR complex) on cyno HSC-F cells (Macaca fascicularis) (UniProt Q95LI5). Kind of test: flow cytometry, cyno HSC-F.
For test [4], the target named is human CD3 (TCR complex) on primary human T cells or Jurkat cells (human) (UniProt P07766). Kind of test: flow cytometry, Jurkat E6-1. For orientation: In flow cytometry, cells or beads pass a laser one at a time.
human CD3 (TCR complex) on primary human T cells or Jurkat cells (human), sequence (P07766 23-207, one chain of several): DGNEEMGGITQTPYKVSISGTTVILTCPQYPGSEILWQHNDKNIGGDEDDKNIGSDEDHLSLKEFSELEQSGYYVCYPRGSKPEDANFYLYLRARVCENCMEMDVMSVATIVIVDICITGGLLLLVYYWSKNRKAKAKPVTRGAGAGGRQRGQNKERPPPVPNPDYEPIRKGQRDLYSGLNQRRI

Macaca fascicularis CD3 (TCR complex) on cyno HSC-F cells (Macaca fascicularis), sequence (Q95LI5 22-198, one chain of several): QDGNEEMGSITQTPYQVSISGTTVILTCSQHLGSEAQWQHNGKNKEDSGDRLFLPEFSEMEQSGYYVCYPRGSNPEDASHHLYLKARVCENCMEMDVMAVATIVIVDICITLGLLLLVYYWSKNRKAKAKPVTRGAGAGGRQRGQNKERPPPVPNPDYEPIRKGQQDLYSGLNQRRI
CODV-Fab 7G3 × I2C (bispecific antibody), sequence (light, part): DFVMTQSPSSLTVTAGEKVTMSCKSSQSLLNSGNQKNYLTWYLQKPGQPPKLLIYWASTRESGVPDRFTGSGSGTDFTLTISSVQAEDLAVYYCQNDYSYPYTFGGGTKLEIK
CODV-Fab 7G3 × I2C (bispecific antibody), sequence (heavy, part): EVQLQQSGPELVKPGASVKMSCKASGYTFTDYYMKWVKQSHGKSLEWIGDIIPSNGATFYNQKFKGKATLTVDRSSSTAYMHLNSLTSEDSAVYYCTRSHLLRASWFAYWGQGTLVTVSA
Macaca fascicularis CD3ε/δ-Fc fusion protein (Macaca fascicularis), sequence (chain, as listed by the source mutant, chain 1 of 2): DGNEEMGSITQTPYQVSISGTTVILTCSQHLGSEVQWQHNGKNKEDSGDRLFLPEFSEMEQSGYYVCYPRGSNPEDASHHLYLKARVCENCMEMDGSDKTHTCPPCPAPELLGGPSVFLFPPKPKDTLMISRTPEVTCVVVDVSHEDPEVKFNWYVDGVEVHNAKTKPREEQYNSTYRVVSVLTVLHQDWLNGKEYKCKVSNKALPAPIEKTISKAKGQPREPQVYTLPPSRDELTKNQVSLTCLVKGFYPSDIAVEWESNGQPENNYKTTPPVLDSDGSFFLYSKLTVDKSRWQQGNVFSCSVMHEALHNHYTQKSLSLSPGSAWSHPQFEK
Macaca fascicularis CD3ε/δ-Fc fusion protein (Macaca fascicularis), sequence (Q95LI8 22-105, stated change not applied, chain 2 of 2): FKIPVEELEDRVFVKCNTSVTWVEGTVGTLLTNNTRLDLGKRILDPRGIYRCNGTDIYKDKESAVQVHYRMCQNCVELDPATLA
human CD123 (IL3RA) on cells (human), sequence (P26951 19-378): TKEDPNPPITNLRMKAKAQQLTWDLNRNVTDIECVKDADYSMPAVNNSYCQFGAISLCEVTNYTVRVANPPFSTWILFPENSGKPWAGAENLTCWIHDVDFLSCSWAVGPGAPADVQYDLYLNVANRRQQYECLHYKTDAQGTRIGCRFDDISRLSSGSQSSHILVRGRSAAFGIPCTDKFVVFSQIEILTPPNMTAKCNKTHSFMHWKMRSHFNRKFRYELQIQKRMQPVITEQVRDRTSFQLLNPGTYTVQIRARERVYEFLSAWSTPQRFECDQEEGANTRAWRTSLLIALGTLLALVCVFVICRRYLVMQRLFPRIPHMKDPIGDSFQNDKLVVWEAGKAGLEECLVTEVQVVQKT

On to “CODV-Fab 7G3 × I2C (bispecific antibody)”, for which the Activity EC50 [ng/ml], cytotoxic assay on THP-1 with human T cells in test [1] came to 20 ng/mL. For the substance SP-34 (antibody), the Ratio KD(cy)/KD(hu) in test [2] came out at 5.

Regarding FN18 (antibody), the geometric mean of relative fluorescence intensity (rfu) in test [3] was 1260 rfu; in test [4], 7 rfu.
